These results are taken from paper doi:10.1101/2021.10.29.466484, “Clamping of DNA shuts the condensin neck gate” (bioRxiv, 2021).

Sequences and labels used below:
B2: Ycs4 (natural protein, S. cerevisiae)
chain: MSGFSLSEYLTKFQTTDRESYPRLQDPSRELNVIIDQLAVSPEQIDASPDSLEALIDLCHDFPHLTPKLQTQLSYLISSSLSNLSKDIKANLSSNVNFTEIGGLIPQWKRHLEEYGYLIQVLLTFLQDELHKVSSQSTNLNRSAKNSKNDSANVELFKRDCNQMENLLESITKLLEINLSKIFQTTPEKDLFIGLFTRPLFVLLEIEPVTKVSSLKMFIQRILAMCVKNHGQSSSIQSSLMTNLTYFLHLSVFNAELLKLLNDEYNYPQLTEDILKEISTRVFNAKDTTGPKAISNFLIKLSELSPGIMLRQMNLVITLLNNSSITLRCSVVEACGNIVAELAQDPQTMEHYKQQIAVLIELLEERFQDSNPYVRTKAIQGCSKICDLSSKFNKSKAKFTSLAVRSLQDRSSLVRRNSVKLLSKLLLKHPFKAIHGSQLRLSEWEEYLKGSESQLNSTLKKVESQETLNDTIERSLIEEEVEQDEGQCRTELEGSFNKSAELSRIENEVENINATNTSVLMKLKLMIVYYKDAISFIKEIHKSIELISNLLFSKNRNEVLESMDFLVLADAFDIELSEFGIKKMLHLVWMKGTNDEGTSISVHLIECYKQLFLTAPDSCNMQEKAAHIAKNLINLSIGASIADLASLEQLLGMMYEQKLIDQHVINILWAIYNSASKASMQKEQNVNNRDSEKGFSKEQIHGSIIILGMLSLADNEIALKGLESLLNIGLGAVGLKDLTLCRYSCLALERMVPKRSTIITKAINQELEDVAVKKLYAIIINYTKDNEYYPMCEQALSALFTISSKPDILATDLIREKTMMTFGKPEEEDSILSLEQSSRVVSLSQLLFIVGQVAIKTLVYLEKCEAEFKKRKIEAETRNGKVKNQGADVTNTTQDNGGDKELEMIGGTNEDDFTDAIQFVKENELLFGEKSILGKFCPIVEEIVSNSSRFSDPMLQRTATLCLEKLMCLSSKYCEKSLPLLITVMEKSPDPTIRSNAVLGLGDMAVCFNNLVDENTDYLYRRLHDENLMVQRTCLMTVTFLILAGQVKVKGQLGEMAKCLDNPDQGISDMCRLFFTELASKDNAIYNGFIDIFSNLSSDDLLGKESFKKIIKFLLTFIDKERHQKQLNEKLVGRLRKCETQKQWDDIAFVLNNLPYKNEDVTALLEQGFKVVSAKE
notes: Ycs4, HAWK subunit of budding yeast (S. cerevisiae) condensin, wild type

Common to all, as to conditions: both partners purified
Test [1] deals with T1, Smc4 (S. cerevisiae, UniProt Q12267 1-1418).
T1 construct: Smc4, SMC subunit of budding yeast (S. cerevisiae) condensin, wild type; Only the head domain and proximal coiled coil are resolved in the maps; also called SMC4-3xStrepII
T1 sequence: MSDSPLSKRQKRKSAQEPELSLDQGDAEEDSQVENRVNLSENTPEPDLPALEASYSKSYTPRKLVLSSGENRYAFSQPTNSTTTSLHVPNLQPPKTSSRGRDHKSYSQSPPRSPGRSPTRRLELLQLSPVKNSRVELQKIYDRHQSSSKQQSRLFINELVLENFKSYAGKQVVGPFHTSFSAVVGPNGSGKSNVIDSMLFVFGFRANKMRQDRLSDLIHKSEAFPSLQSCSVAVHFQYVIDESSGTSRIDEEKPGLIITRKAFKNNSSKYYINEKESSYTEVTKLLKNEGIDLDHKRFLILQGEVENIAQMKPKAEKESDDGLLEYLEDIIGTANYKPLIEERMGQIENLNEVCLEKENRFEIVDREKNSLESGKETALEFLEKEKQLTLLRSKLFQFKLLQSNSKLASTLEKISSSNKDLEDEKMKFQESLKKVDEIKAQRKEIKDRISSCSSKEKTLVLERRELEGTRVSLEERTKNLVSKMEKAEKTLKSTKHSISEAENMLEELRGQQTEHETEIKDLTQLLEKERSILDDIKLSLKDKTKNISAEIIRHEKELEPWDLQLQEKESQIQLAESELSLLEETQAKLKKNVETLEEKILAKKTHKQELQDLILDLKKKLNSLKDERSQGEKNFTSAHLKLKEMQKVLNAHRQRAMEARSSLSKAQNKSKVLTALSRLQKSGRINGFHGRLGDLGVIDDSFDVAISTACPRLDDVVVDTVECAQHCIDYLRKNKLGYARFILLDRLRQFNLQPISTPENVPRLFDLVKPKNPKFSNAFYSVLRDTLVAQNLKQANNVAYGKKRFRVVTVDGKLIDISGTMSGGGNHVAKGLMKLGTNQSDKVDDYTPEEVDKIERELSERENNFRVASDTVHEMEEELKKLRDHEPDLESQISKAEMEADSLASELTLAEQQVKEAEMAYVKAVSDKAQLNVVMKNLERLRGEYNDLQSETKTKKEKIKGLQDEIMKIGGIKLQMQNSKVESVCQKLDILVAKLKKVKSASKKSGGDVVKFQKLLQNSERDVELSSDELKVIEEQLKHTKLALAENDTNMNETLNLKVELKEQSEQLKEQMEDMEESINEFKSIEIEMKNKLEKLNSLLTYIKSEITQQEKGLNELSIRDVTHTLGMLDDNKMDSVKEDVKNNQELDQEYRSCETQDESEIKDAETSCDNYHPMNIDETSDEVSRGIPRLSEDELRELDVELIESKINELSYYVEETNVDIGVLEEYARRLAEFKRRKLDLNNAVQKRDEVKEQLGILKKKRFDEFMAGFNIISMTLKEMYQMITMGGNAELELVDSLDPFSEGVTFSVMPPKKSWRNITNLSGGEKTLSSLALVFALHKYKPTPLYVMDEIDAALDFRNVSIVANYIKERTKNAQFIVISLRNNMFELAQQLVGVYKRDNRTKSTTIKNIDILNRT
Put plainly: cryo-EM structure; condensin tetramer (Smc2, Smc4, Brn1, Ycs4) with 80 bp dsDNA, 5 mM ADP, 1 mM BeSO4, 10 mM NaF; TNT buffer (30 mM Tris/HCl, 60 mM NaCl, 1 mM TCEP, 2 mM MgCl2, pH 7.5); head module, Forms I and II.

In the test “Ycs4” the target is B2. In words: cryo-EM structure; condensin pentamer (Smc2, Smc4, Brn1, Ycs4, Ycg1) with 80 bp dsDNA, ADP and BeF3; separate maps of the head module and of Ycg1-DNA from one dataset.
Test [2] has as its target T1, Smc4. Described as above.

B1: Smc2 (natural protein, S. cerevisiae)
chain: MKVEELIIDGFKSYATRTVITDWDPQFNAITGLNGSGKSNILDAICFVLGIASMSTVRASSLQDLIYKRGQAGVTKASVTIVFDNTDKSNSPIGFTNSPQISVTRQVVLGGTSKYLINGHRAPQQSVLQLFQSVQLNINNPNFLIMQGKITKVLNMKPSEILSLIEEAAGTKMFEDRREKAERTMSKKETKLQENRTLLTEEIEPKLEKLRNEKRMFLEFQSTQTDLEKTERIVVSYEYYNIKHKHTSIRETLENGETRMKMLNEFVKKTSEEIDSLNEDVEEIKLQKEKELHKEGTISKLENKENGLLNEISRLKTSLSIKVENLNDTTEKSKALESEIASSSAKLIEKKSAYANTEKDYKMVQEQLSKQRDLYKRKEELVSTLTTGISSTGAADGGYNAQLAKAKTELNEVSLAIKKSSMKMELLKKELLTIEPKLKEATKDNELNVKHVKQCQETCDKLRARLVEYGFDPSRIKDLKQREDKLKSHYYQTCKNSEYLKRRVTNLEFNYTKPYPNFEASFVHGVVGQLFQIDNDNIRYATALQTCAGGRLFNVVVQDSQTATQLLERGRLRKRVTIIPLDKIYTRPISSQVLDLAKKIAPGKVELAINLIRFDESITKAMEFIFGNSLICEDPETAKKITFHPKIRARSITLQGDVYDPEGTLSGGSRNTSESLLVDIQKYNQIQKQIETIQADLNHVTEELQTQYATSQKTKTIQSDLNLSLHKLDLAKRNLDANPSSQIIARNEEILRDIGECENEIKTKQMSLKKCQEEVSTIEKDMKEYDSDKGSKLNELKKELKLLAKELEEQESESERKYDLFQNLELETEQLSSELDSNKTLLHNHLKSIESLKLENSDLEGKIRGVEDDLVTVQTELNEEKKRLMDIDDELNELETLIKKKQDEKKSSELELQKLVHDLNKYKSNTNNMEKIIEDLRQKHEFLEDFDLVRNIVKQNEGIDLDTYRERSKQLNEKFQELRKKVNPNIMNMIENVEKKEAALKTMIKTIEKDKMKIQETISKLNEYKRETLVKTWEKVTLDFGNIFADLLPNSFAKLVPCEGKDVTQGLEVKVKLGNIWKESLIELSGGQRSLIALSLIMALLQFRPAPMYILDEVDAALDLSHTQNIGHLIKTRFKGSQFIVVSLKEGMFANANRVFRTRFQDGTSVVSIM
notes: Smc2, SMC subunit of budding yeast (S. cerevisiae) condensin, wild type; Expressed from pGAL10-SMC2 together with the other subunits; Only the head domain and proximal coiled coil are resolved in the maps
For the molecule B1, the binding result with Smc4 [1] and with Ycs4 was “binds” throughout.

Take B2: the binding result in the test with Smc4 [2] is given as “binds”.
